This note sets out measurements from publication PMC4808631.

For the data set, the target named is T1, Ets-1 ΔN331 (UniProt P27577 331-440).
T1 sequence: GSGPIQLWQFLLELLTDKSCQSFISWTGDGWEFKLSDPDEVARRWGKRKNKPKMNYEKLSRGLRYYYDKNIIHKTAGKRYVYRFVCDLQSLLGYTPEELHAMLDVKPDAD
Briefly: EMSA. A general note: Mobility shift assays separate free from complexed probe on a gel.

B1: high affinity ETS binding site 27-mer duplex (dsDNA)
DNA 1: TCGACGGCCAAGCCGGAAGTGAGTGCC
DNA 2: TCGAGGCACTCACTTCCGGCTTGGCCG
In the case of B1, the binding result is “binds”.
